Legend:
[1] = biological target: T1, human CTLA4 on CHO-K1/hCTLA4 cells (human, UniProt P16410 36-223); assay: flow cytometry on CHO-K1/hCTLA4 cells, Experiment 1
T1 construct: whole, on cells; CHO-K1 cell line highly expressing human CTLA4; also called human CTLA4 cell

[2] = biological target: T1, human CTLA4 on CHO-K1/hCTLA4 cells; assay: flow cytometry on CHO-K1/hCTLA4 cells, Experiment 2
[3] = biological target: T1, human CTLA4 on CHO-K1/hCTLA4 cells; assay: flow cytometry on CHO-K1/hCTLA4 cells, Experiment 3
[4] = biological target: T2, biotinylated human CTLA4-Fc protein (ACRO Biosystems, #CT4-H82F3) (human, UniProt P16410 36-161, biotinylated); assay: competition ELISA: coated human B7-1-Fc, biotinylated human CTLA4-Fc, Experiment 1
T2 construct: Bought protein; also called human CTLA4 protein

[5] = biological target: T2, biotinylated human CTLA4-Fc protein …; assay: competition ELISA: coated human B7-1-Fc, biotinylated human CTLA4-Fc, Experiment 2
[6] = biological target: T1, human CTLA4 on CHO-K1/hCTLA4 cells; assay: flow cytometry competition: biotinylated human B7-1-Fc on CHO-K1/hCTLA4 cells, Experiment 1
[7] = biological target: T1, human CTLA4 on CHO-K1/hCTLA4 cells; assay: flow cytometry competition: biotinylated human B7-1-Fc on CHO-K1/hCTLA4 cells, Experiment 2
[8] = biological target: T3, cynomolgus monkey BCMA (ACRO Biosystems, #BCA-C82F4) (cynomolgus monkey, UniProt A0A2K5UD97 1-53); assay: BLI, Octet Red96e
T3 construct: bought; also called cyBCMA.Fc

[9] = biological target: T4, cynomolgus monkey BCMA on cells (HEK293T/cyno BCMA) (cynomolgus monkey, UniProt A0A2K5UD97 1-183); assay: FACS, HEK293T/cyno BCMA cells
T4 construct: whole, on cells

[10] = biological target: T5, human CTLA4-His protein (ACRO Biosystems, #CT4-H5229) (human, UniProt P16410 36-161); assay: ELISA, coated hCTLA4-His
T5 construct: extracellular domain; bought; also called hCTLA4-His; human CTLA4 extracellular domain recombinant protein

[11] = biological target: T6, human PD-L1-His protein (ACRO Biosystems, #PD1-H5229) (human, UniProt Q9NZQ7 19-238); assay: ELISA, coated hPD-L1-His
T6 construct: extracellular domain; bought; also called hPDL1-His; human PD-L1 extracellular domain recombinant protein

[12] = biological target: T7, human CTLA4 on cells (CHO-K1/hCTLA4; HEK293/hCTLA4; 293F-hCTLA4) (human, UniProt P16410 36-223); assay: FACS, CHO-K1/hCTLA4 cells (Test 1)
T7 construct: whole, on cells

[13] = biological target: T8, human PD-L1 on cells (CHO-K1/hPDL1; MDA-MB-231) (human, UniProt Q9NZQ7 19-290); assay: FACS, CHO-K1/hPDL1 cells (Experiment 1)
T8 construct: whole, on cells

[14] = biological target: T9, biotinylated human CTLA4-Fc protein (ACRO Biosystems, #CT4-H82F3) (human, UniProt P16410 36-161, biotinylated); assay: competition ELISA: biotinylated hCTLA4-Fc to coated B7-1-Fc
T9 construct: bought; also called human CTLA4 protein

[15] = biological target: T9, biotinylated human CTLA4-Fc protein …; assay: as above; remark: listed apart in the source
[16] = biological target: T7, human CTLA4 on cells (CHO-K1/hCTLA4; …); assay: competition FACS: biotinylated B7-1-Fc to CHO-K1/hCTLA4 cells (Test 1)
[17] = biological target: T8, human PD-L1 on cells (CHO-K1/hPDL1; …); assay: competition FACS: biotinylated PD-1 to CHO-K1/hPDL1 cells (Experiment 1)
[18] = biological target: T7, human CTLA4 on cells (CHO-K1/hCTLA4; …); assay: competition FACS: biotinylated B7-1-Fc to CHO-K1/hCTLA4 cells
[19] = biological target: T5, human CTLA4-His protein (ACRO …); assay: ELISA, coated hCTLA4-His; remark: listed apart in the source

Row | EC50 [10] | Maximum OD450 [10] | EC50 [11] | Maximum OD450 [11] | EC50 [12] | Maximum MFI [12] | EC50 [13] | Maximum MFI [13] | IC50 [15] | Maximum inhibition rate (%) [15] | IC50 [16] | Maximum inhibition rate (%) [16] | IC50 [17] | Maximum inhibition rate (%) [17] | Binder | also measured
1 |  |  |  |  |  |  |  |  |  |  |  |  |  |  | Anti-CTLA4 heavy-chain antibody CL5v3, hIgG1 (antibody, V domains shown, Heavy-chain-only antibody (HCAb), no light chain; parent of the CTLA4 end of the HER2xCTLA4 bispecifics; also called PR000184) VH: EVQLVESGGGLIQPGGSLRLSCAVSGFTVSKNYMSWVRQAPGKGLEWVSVVYSGGSKTYADSVKGRFTISRDNSKNTLYLQMNSLRAEDTAVYYCARAVPHSPSSFDIWGQGTMVTVSS | EC50 [1]: 1.59 nM; Maximum MFI [1]: 214 MFI; EC50 [2]: 1.79 nM; Maximum MFI [2]: 1080 MFI; EC50 [3]: 3.05 nM; IC50 [4]: 2.46 nM; IC50 [5]: 1.69 nM; IC50 [6]: 1.69 nM; Maximum inhibition rate [6]: 99.6%; IC50 [7]: 0.239 nM
2 |  |  |  |  |  |  |  |  |  |  |  |  |  |  | PR002199, BCMA×CD3 bispecific antibody derived from WO2019133761A1 (bispecific antibody, human IgG1, kappa, L234A L235A, also called positive control 2) chain 1: not shown chain 2: EVQLVESGGGLVQPGRSLRLSCAASGFTFDDYAMHWVRQAPGKGLEWVSGISWNSGSIGYADSVKGRFTISRDNAKNSLYLQMNSLRAEDTALYYCAKDSRGYGDYRLGGAYWGQGTLVTVSSASTKGPSVFPLAPSSKSTSGGTAALGCLVKDYFPEPVTVSWNSGALTSGVHTFPAVLQSSGLYSLSSVVTVPSSSLGTQTYICNVNHKPSNTKVDKKVEPKSCDKTHTCPPCPAPEAAGGPSVFLFPPKPKDTLMISRTPEVTCVVVDVSHEDPEVKFNWYVDGVEVHNAKTKPREEQYNSTYRVVSVLTVLHQDWLNGKEYKCKVSNKALGAPIEKTISKAKGQPREPQVYTLPPCREEMTKNQVSLWCLVKGFYPSDIAVEWESNGQPENNYKTTPPVLDSDGSFFLYSKLTVDKSRWQQGNVFSCSVMHEALHNHYTQKSLSLSPGK chain 3: EVQLLESGGGLVQPGGSLRLSCAASGFTVSSYGMSWVRQAPGKGPEWVSGIRGSDGSTYYADSVKGRFTISRDNSKNTLYLQMNSLRAEDTAVYYCAKQGENDGPFDHRGQGTLVTVSSGGGGSEVQLLESGGGLVQPGGSLRLSCAASGFTVSSYGMSWVRQAPGKGPEWVSGIRGSDGSTYYADSVKGRFTISRDNSKNTLYLQMNSLRAEDTAVYYCAKQGENDGPFDHRGQGTLVTVSSASEPKSSDKTHTCPPCPAPEAAGGPSVFLFPPKPKDTLMISRTPEVTCVVVDVSHEDPEVKFNWYVDGVEVHNAKTKPREEQYNSTYRVVSVLTVLHQDWLNGKEYKCKVSNKALGAPIEKTISKAKGQPREPQVCTLPPSREEMTKNQVSLSCAVKGFYPSDIAVEWESNGQPENNYKTTPPVLDSDGSFFLVSKLTVDKSRWQQGNVFSCSVMHEALHNHYTQKSLSLSPGK | binding result [8]: no binding; binding result [9]: no binding
3 | 10.6 nM | 3.55 OD450 | 0.152 nM | 3.54 OD450 | 26.1 nM | 1570 MFI | 0.737 nM | 18600 MFI | 11.6 nM | 98.9% | 71.2 nM | 49% | 0.64 nM | 96.7% | PR000302 (bispecific antibody, human IgG1, kappa) DIQMTQSPSTLSASVGDRVTVTCRASQSIYIWLAWYQQKPGKAPNLLIYKASSLETGVPSRFSGSGSGTEFTLTISSLQPDDFATYYCQQYYGSSRTFGQGTKVEIKRTVAAPSVFIFPPSDEQLKSGTASVVCLLNNFYPREAKVQWKVDNALQSGNSQESVTEQDSKDSTYSLSSTLTLSKADYEKHKVYACEVTHQGLSSPVTKSFNRGECEPKSSDKTHTPPPPPEVQLVESGGGLIQPGGSLRLSCAVSGFTVSKNYMSWVRQAPGKGLEWVSVVYSGGSKTYADSVKGRFTISRDNSKNTLYLQMNSLRAEDTAVYYCARAVPHSPSSFDIWGQGTMVTVSS heavy: not shown | fold weaker IC50 than PR000184 [14]: 4 fold
4 |  |  |  |  |  |  |  |  |  |  |  |  |  |  | PR002672 (bispecific antibody, HER2×CTLA4, structure 18 Fab(cross Fd/LC)-Fc-VH-VH) chain 1: not shown chain 2: not shown chain 3: EVQLVESGGGLIQPGGSLRLSCAVSGFTVSKNYMSWVRQAPGKGLEWVSVVYSGGSKTYADSVKGRFTISRDNSKNTLYLQMNSLRAEDTAVYYCARAVPHSPSSFDIWGQGTMVTVSSGGGGSEVQLVESGGGLIQPGGSLRLSCAVSGFTVSKNYMSWVRQAPGKGLEWVSVVYSGGSKTYADSVKGRFTISRDNSKNTLYLQMNSLRAEDTAVYYCARAVPHSPSSFDIWGQGTMVTVSSEPKSSDKTHTCPPCPAPELLGGPDVFLFPPKPKDTLMISRTPEVTCVVVDVSHEDPEVKFNWYVDGVEVHNAKTKPREEQYNSTYRVVSVLTVLHQDWLNGKEYKCKVSNKALPAPEEKTISKAKGQPREPQVCTLPPSREEMTKNQVSLSCAVKGFYPSDIAVEWESNGQPENNYKTTPPVLDSDGSFFLVSKLTVDKSRWQQGNVFSCSVMHEALHNHYTQKSLSLSPGK | fold poorer IC50 than the parent monoclonal antibody [18]: ~4 fold
5 | 1.57 nM | 2.72 OD450 | 0.241 nM | 3.52 OD450 | 4.36 nM | 2040 MFI | 0.848 nM | 18000 MFI | 4.12 nM | 97.3% | 9.71 nM | 83.3% | 0.695 nM | 95.9% | PR000303 (bispecific antibody, human IgG1, kappa) light: DIQMTQSPSTLSASVGDRVTVTCRASQSIYIWLAWYQQKPGKAPNLLIYKASSLETGVPSRFSGSGSGTEFTLTISSLQPDDFATYYCQQYYGSSRTFGQGTKVEIKRTVAAPSVFIFPPSDEQLKSGTASVVCLLNNFYPREAKVQWKVDNALQSGNSQESVTEQDSKDSTYSLSSTLTLSKADYEKHKVYACEVTHQGLSSPVTKSFNRGEC not shown | fold poorer EC50 than PR000184 [19]: 2.6 fold

From patent US20230322953A1 (HARBOUR BIOMED SHANGHAI, published 2023)
